In patent US20260070986A1 (AFFIMED, published 2026) one finds binding result and Kd data, which are given here for one molecule.

Broadly, the Kd is the free concentration of one partner at which half of the binding sites on the other are occupied at equilibrium, for simple one-to-one binding.

Experiment [1] addresses T1, recombinant human FcγRI (CD64), biotinylated (human, UniProt P12314 16-288, limits assumed, site-directed biotinylation at AviTag).
T1 construct: also called human CD64
The experiment is described as follows: SPR (Biacore), 37 °C, biotin-captured human CD64 as ligand, steady-state plot; left-hand column, no heading on the sheet. The protocol:
(§1) FIG. 20: SPR interaction analysis of antibody binding to CD64 and murine CD16-2. […] Affinity parameters were evaluated for interaction with receptors using a Steady State Binding model.
A general note: SPR reads the build-up and loss of mass on a sensor chip optically.

Experiment [2] has as its target T2, recombinant murine FcγRI (CD64), biotinylated (murine, UniProt P26151 25-297, limits assumed, site-directed biotinylation at AviTag).
T2 construct: also called murine CD64; mouse CD64
T2 sequence (looked up): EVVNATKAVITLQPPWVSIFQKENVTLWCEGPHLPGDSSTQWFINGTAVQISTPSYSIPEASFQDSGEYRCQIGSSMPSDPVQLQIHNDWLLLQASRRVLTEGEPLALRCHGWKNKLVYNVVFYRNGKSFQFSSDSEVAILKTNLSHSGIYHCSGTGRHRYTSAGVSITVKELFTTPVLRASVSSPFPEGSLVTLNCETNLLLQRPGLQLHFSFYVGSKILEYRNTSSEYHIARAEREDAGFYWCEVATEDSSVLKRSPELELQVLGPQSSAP
The experiment is described as follows: SPR (Biacore), 37 °C, biotin-captured murine CD64 as ligand, steady-state plot; left-hand column, no heading on the sheet. The protocol:
as §1

In experiment [3] the target is T3, human CD16A (158F) on transfected CHO cells (cAg_34) (human, UniProt P08637 17-254).
T3 construct: Exact cell-anchored construct not described; also called huCD16A
T3 sequence (P08637 17-254 limits assumed): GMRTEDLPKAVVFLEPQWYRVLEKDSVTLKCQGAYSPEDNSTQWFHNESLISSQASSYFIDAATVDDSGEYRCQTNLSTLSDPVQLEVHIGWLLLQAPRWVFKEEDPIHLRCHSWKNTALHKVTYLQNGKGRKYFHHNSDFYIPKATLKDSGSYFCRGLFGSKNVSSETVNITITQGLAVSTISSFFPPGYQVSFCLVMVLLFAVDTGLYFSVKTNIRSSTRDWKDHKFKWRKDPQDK
The experiment is described as follows: flow cytometry on huCD16A-transfected CHO cells (cAg_34), one-site fit of MFI, experiment 2. The protocol:
After washing in FACS buffer, cells were incubated in 50 μL FACS buffer without antibodies or with titrated antibodies starting at a concentration of 100 μg/mL followed by ten 5-fold serial dilutions for 30 min on ice in the dark. After washing twice, cells were incubated with APC-conjugated goat anti-human IgG (H+L)-APC (Dianova, cat. 109-136-088) for 30 min on ice in the dark. […] After washing, binding was measured by flow cytometry and mean fluorescence intensities (MFI) of cell samples were calculated and corrected for background staining using control cells stained with secondary antibodies only.
Equilibrium dissociation constants (KD) of antibody binding were calculated by plotting MFI values and fitting a non-linear regression model for one-site binding to hyperbolic dose-response curves using GraphPad Prism.
(Flow cytometry measures light scatter and fluorescence of single cells or particles in a stream.)

In experiment [4] the target is T4, recombinant human FcγRIIA (CD32A), biotinylated (human, UniProt P12318 34-218, limits assumed, site-directed biotinylation at AviTag).
T4 construct: also called human CD32A
T4 sequence (looked up): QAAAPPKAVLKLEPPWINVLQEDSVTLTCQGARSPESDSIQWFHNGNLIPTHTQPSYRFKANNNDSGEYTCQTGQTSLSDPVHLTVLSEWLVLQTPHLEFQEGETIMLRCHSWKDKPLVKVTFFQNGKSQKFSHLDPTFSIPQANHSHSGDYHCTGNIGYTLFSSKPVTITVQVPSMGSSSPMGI
The experiment is described as follows: SPR (Biacore), 37 °C, biotin-captured human CD32A as ligand, steady-state plot; left-hand column, no heading on the sheet. On the procedure:
FIG. 21: SPR interaction analysis of antibody binding to CD32. […] Affinity parameters were evaluated for interaction with receptors using a Steady State Binding model.

For experiment [5], the target named is T5, recombinant murine FcγRIIB (CD32), biotinylated (murine, UniProt P08101 30-207, limits assumed, site-directed biotinylation at AviTag).
T5 construct: also called murine CD32B; mouse CD32B
T5 sequence (looked up): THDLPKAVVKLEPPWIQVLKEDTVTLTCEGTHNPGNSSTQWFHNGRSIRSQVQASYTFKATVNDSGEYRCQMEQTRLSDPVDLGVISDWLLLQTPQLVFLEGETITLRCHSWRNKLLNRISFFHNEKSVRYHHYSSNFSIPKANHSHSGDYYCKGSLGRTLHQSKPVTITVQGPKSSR
The experiment is described as follows: SPR (Biacore T200), 37 C, biotin-captured receptor. The protocol:
(§2) Sensor chips were pre-equilibrated in HBS-P+ running buffer for 12 hours prior to the first measurement and the detectors were normalized using BIAnormalization solution (70% w/w glycerol) according to the manufacturer's instructions.
(§3) Interaction analysis of FcRn binding was performed at pH 6.0 in PBS/0.05% Tween 20; analytes and ligands were diluted in the same buffer. […] Ligand-free surfaces in FC1 and FC3 were used as references for response signals (FC2-1, FC4-3). Interaction analysis of CD64, CD32, and murine CD16-2 binding was performed in HBS-P+ buffer and analytes and ligands were diluted in the same buffer. Biotinylated Fcγ-Receptors were captured to a density of approximately 15 to 30 RU (FC2, FC3, and FC4) before increasing concentrations (500 nM to 4000 nM) of antibody were injected, using the single-cycle kinetic mode (FC1-FC4) at a flow rate of 40 μL/min for 100 seconds followed by dissociation for 90 seconds. A zero-concentration cycle and ligand-free surface in FC1 was used for referencing of response signals (FC2-1, FC3-1, and FC4-1). Sensor chip surfaces were prepared and regenerated before and after each measurement using Biotin Capture reagent (Biotin CAPture Kit, GE Healthcare) and 6 M guanidine-HCl, 0.25 M NaOH, respectively.
(§4) Binding affinities were determined by fitting data using the steady state affinity model of the Biacore T200 Evaluation software (v3.1).

For experiment [6], the target named is T6, recombinant cynomolgus neonatal Fc receptor (FcRn), biotinylated (cynomolgus, UniProt Q8SPV9 24-297, limits assumed, site-directed biotinylation at AviTag).
T6 construct: also called cynomolgus FcRn
T6 sequence (Q8SPV9 24-297 limits assumed, form in doubt): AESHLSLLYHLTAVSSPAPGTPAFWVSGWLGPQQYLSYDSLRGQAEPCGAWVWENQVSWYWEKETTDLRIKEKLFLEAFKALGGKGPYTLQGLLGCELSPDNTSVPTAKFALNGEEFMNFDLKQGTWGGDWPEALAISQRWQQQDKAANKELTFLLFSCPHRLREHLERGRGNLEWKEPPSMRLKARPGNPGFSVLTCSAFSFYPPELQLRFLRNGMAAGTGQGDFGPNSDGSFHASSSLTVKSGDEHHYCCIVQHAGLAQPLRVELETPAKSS
The experiment is described as follows: SPR (Biacore T200), 37 C, pH 6.0, biotin-captured FcRn, steady-state affinity. The protocol:
as §2, §3, §4

The target of experiment [7] is T7, recombinant human neonatal Fc receptor (FcRn), biotinylated (human, UniProt P55899 24-297, site-directed biotinylation at AviTag).
T7 construct: also called human FcRn
T7 sequence (P55899 24-297 limits assumed, form in doubt): as the sequence (Q8SPV9 24-297 limits assumed, form in doubt) above, with D39N, Q44E, S99G, G189S, N190S, M217L, T269S counted along it
The experiment is described as above. The protocol:
as §2, §3, §4

Experiment [8] has as its target T6, recombinant cynomolgus neonatal Fc …. The experiment is described as follows: SPR (Biacore), 37 °C, pH 6.0, biotin-captured cynomolgus FcRn as ligand, steady-state affinity fit. On the procedure: Affinity parameters were evaluated for interaction with human FcRn, cynomolgus FcRn or murine FcRn using a Steady State Binding model (D-F).

T1 sequence (P12314 16-288 limits assumed): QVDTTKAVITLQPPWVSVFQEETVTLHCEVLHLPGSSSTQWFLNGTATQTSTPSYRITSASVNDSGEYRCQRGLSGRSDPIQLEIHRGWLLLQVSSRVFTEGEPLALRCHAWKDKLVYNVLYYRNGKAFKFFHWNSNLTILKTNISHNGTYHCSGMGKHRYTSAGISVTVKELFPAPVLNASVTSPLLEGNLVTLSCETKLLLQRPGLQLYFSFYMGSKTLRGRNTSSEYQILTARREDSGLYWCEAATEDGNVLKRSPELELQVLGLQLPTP

B1: scFv-IgAb_268 (CD123-1xCD16a1) (bispecific antibody)
heavy: QVQLQQSGAEVKKPGASVKVSCKASGYTFTDYYMKWVKQSHGKSLEWMGDIIPSNGATFYNQKFKGKATLTVDRSTSTAYMELSSLRSEDTAVYYCARSHLLRASWFAYWGQGTLVTVSSASTKGPSVFPLAPSSKSTSGGTAALGCLVKDYFPEPVTVSWNSGALTSGVHTFPAVLQSSGLYSLSSVVTVPSSSLGTQTYICNVNHKPSNTKVDKKVEPKSCDKTHTCPPCPAPEFEGGPSVFLFPPKPKDTLMISRTPEVTCVVVAVSHEDPEVKFNWYVDGVEVHNAKTKPREEQYNSTYRVVSVLTVLHQDWLNGKEYKCKVSNKALPAPIEKTISKAKGQPREPQVYTLPPSREEMTKNQVSLTCLVKGFYPSDIAVEWESNGQPENNYKTTPPVLDSDGSFFLYSKLTVDKSRWQQGNVFSCSVMHEALHNHYTQKSLSLSPGGGGGSGGGGSGGGGSGGGGSGGGGSGGGGSSYELTQPLSVSVALGQTARITCGGNNIGSKSVHWYQQKPGQAPVLVIYQDKKRPSGIPERFSGSNSGNTATLTISRAQAGDEADYYCQVWDDYIVLFGCGTKLTVLGGSGGSGGSGGSGGSGGSGGSQVQLVQSGAEVKKPGASVKVSCKASGYTFTNYYMQWVRQAPGQCLEWMGIINPSGGVTSYAQKFQGRVTMTRDTSTSTVYMELSSLRSEDTAVYYCARGSAYYYDFADYWGQGTLVTVSS
light: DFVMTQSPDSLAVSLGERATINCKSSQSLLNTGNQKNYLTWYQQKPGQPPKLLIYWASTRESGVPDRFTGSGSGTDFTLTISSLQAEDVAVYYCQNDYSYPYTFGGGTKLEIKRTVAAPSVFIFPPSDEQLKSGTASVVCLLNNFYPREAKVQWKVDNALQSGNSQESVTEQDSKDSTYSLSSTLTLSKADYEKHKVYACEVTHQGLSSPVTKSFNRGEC
notes: also called AFM28; CD123xCD16A scFv-IgAb_268
Regarding B1, the binding result in experiment [1] is given as “no binding”; in experiment [2] it was “no binding (tested: 2e-6 M (last point visible))”; in experiment [4], “no binding”; in experiment [5] it was “no binding (tested: 500 nM to 4000 nM)”. The Kd in experiment [3] came to 7.8 nM; in experiment [6], 238 nM; in experiment [7] it was 364 nM; in experiment [8], 238 nM.
